Two molecules from article PMC9636964 (Proceedings of the National Academy of Sciences of the …, 2022) can be followed below.

Experiment [1] deals with T1, G3BP1 NTF2L (nuclear transport factor 2-like domain of Ras-GTPase-activating protein binding protein (human, UniProt Q13283 1-139)). In words: ITC. For orientation: In ITC the heat of successive injections is recorded.
For experiment [2], the target named is T1, G3BP1 NTF2L (nuclear transport factor …). In words: NMR titration.

T1 sequence (Q13283 1-139): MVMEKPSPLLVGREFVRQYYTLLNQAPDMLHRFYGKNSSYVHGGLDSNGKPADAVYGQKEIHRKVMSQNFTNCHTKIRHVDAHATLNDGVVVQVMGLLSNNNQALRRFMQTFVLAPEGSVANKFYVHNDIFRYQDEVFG

In general, Kd refers to the free concentration of one partner at which half of the binding sites on the other are occupied at equilibrium, for simple one-to-one binding. High values mean lower affinity, low ones higher affinity. The molecule VAQADPLVRRQRVQDLMAQMQGPYNFIQDSMLDFENQTLD [Caprin-1(347-386) peptide] displayed a Kd in experiment [1] of 1300 nM.

B1: Caprin-1(330-432) (domain or fragment)
chain: QPQAASPSVPEPHSLTPVAQADPLVRRQRVQDLMAQMQGPYNFIQDSMLDFENQTLDPAIVSAQPMNPTQNMDMPQLVCPPVHSESRLAQPNQVPVQPEATQV
modifications: 15N-labeled
Turning to B1, the binding result in experiment [2] is “binds”.
